Experimental findings from the nanobody polyreactivity screen of Harvey et al. (2022) are described below.

The nature of this data set: yeast display, Sf9 membrane polyspecificity reagent, FACS + sequencing; frameworks hold sequencing errors. Put shortly: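 Nanobodies came from a synthetic yeast display library in Saccharomyces cerevisiae BJ5465, induced with galactose for 36–48 hours and stained for 1 hour at 4 °C with 10% biotinylated, detergent-solubilized Sf9 membrane reagent. Cells were enriched on streptavidin microbeads and then FACS-sorted, with low and high (top ~1%) gates set on anti-HA fluorescence for expression and streptavidin fluorescence for reagent binding. Each polyreactivity label reflects the gate a clone came from. Genes were amplified by colony PCR, sequenced by MiSeq 2 × 250 and filtered by CDR length.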
On to “QVQLVESGGGLVQAGGSLRLSCADSGFILTYYAMGWYRQAPGKERELVAAISWSGGSTYYADSVKGRFTISRDNAKNTVYLQMNSLKPEDTAVYYCAAEKRYSSYDYWGQGTQVTVSS”, for which the “polyreactivity (PSR sort gate)” value is reported as “high polyreactivity”.
As for “QVQLVESGGGLVQAGGSLRLSCADSGFTFAANTMGWYRQAPGKARELVADISGRGDRTSYADSVKGRFTISRDNAKNTVYLQMNSLKPEDTAVYYCAVDIYYYSNVHYYYWGQGTQVTVSS”, the “polyreactivity (PSR sort gate)” value is given as “low polyreactivity”.
As to “QVQLVESGGGLVQAGGSLRLSCADSGFTFSWYAMGWYRQAPGKERELVAAISLRGGSTYYADSVKGRFTISRENAKNTVYFQMNSLKPEDTAVYYCAADSFRWRYKNFYYWGQGTQVTLSS”, the “polyreactivity (PSR sort gate)” value is recorded as “high polyreactivity”.
Regarding “QVQLVESGGGLVQAGGSLRLSCADSGFTFTLYAMGWYRQAPGKERELVAAISGIGGSTYYSDSVKGRFTISSDNAKNTVYLQMNSLKPEDTAVYYCNAVSGDSGDYWGQGTQVNVSS”, the “polyreactivity (PSR sort gate)” value is on record as “low polyreactivity”.
As to “QVQLVESGGGLVQAGGSLRLSCADSGFTFWRYAMGWYRQAPGKERELVAAISWRGSSTYYADSVKGRFTISRDIAKNTVYLQMNSLKPEDTAVYYCARYQSTYDSTYNYWGQGTQVTVSS”, the “polyreactivity (PSR sort gate)” value is recorded as “high polyreactivity”.
In the case of “QVQLVESGGGLVQAGGSLRLSCADSGFTFYVYTMGWYRQAPAKERELVAAITWSGGSTYYADSVKGRFTISRDNAKNTVYLQMNSLKPEDTAVYYCNRVGYWVGHDSWGQGTQVTVSS”, the “polyreactivity (PSR sort gate)” value is given as “high polyreactivity”.
Under “QVQLVESGGGLVQAGGSLRLSCADSGIIFTRYAMGWYRQAPGKERELVAVITQSGGRTYYADSVKGRFTISRDNAKNTVYLQLNSLKPEDTAVYYCAAAYKPSYFTRAGDYWGQGTQVTVSS” stands “high polyreactivity”; under “QVQLVESGGGLVQAGGSLRLSCADSGITFKYNAMGWYRQAPGKERELVAGITWTGGTTYYADSVKGRFTISRDNAKNTVYLQMNSLNPEDTAVYYCATRNYAVVPSVRREGYYWGQGTQVTVSS”, “low polyreactivity”; under “QVQLVESGGGLVQAGGSLRLSCADSGITFYRYAMGWYRQAPGKERELVATITSSGGRTYYADSVKGRFTISRDNAKNTVYLQLNSLKPEDTAVYYSAAGKFSYRVYYQFRGGNYWGQGTQVTVSS”, “high polyreactivity”.
For “QVQLVESGGGLVQAGGSLRLSCADSGLIFTAHDMGWYRQAPGKERELVADISKSGSSTYYADSVKGRFTISRDNAKNTVYLQMNSLKPEDTAVYYCNADYLTYFTTFDYWGQGTQVTVSS”, the “polyreactivity (PSR sort gate)” value was “low polyreactivity”.
As to “QVQLVESGGGLVQAGGSLRLSCADSGLTFQRYAMGWYRQAPGKERELVAAISQRGSSTYYADSVKGRFTISRDNAKNTVYLQMNSLKPEDTAVYYCNARPYLFWLSIYDYWGQGTQVTVSS”, the “polyreactivity (PSR sort gate)” value is listed as “low polyreactivity”.
To “QVQLVESGGGLVQAGGSLRLSCADSGNIFYKYDMGWYRQAPGKERELVATISSDANTKYADSVKGRFTISRDNAKNTVYLHMNSLKPEDTAVYYCNVKDPVVRGALRDPTEYDSWGQGTQVTVSS” belongs “low polyreactivity”.
Consider “QVQLVESGGGLVQAGGSLRLSCADSGNTFYANAMGWYRQAPGKEREFVASITRSGGSTYYADSVKGRFTISRDNAKNTVYLQMNSLKPEVTAVYYCAADSWFKYDYWGQGTQVTVSS”, for which the “polyreactivity (PSR sort gate)” value is “low polyreactivity”.
Consider “QVQLVESGGGLVQAGGSLRLSCADSGRIFADNAMGWYRHAPGKERELVAAITWSGGITFYADSVKGRFTISRDNAKKTVYLQMNSLKPEDTAVYYCATYGHRDTPYNYWGQGTQVTVSS”, for which the “polyreactivity (PSR sort gate)” value is on record as “low polyreactivity”.
Under “QVQLVESGGGLVQAGGSLRLSCADSGRIFAWYAMGWYRQAPGKERELVAVITSSDGSTHYADSVKGRFTISRDNAKNTVYLQMNSLKPEDTAVYYCNADSQRPRRRSNYWGQGTQVTVSS” stands “low polyreactivity”; under “QVQLVESGGGLVQAGGSLRLSCADSGRIFPQYTMGWYRQAPGKERELVAGISYGGVSTYYADSVKGRFTISRDNAKNTVYLHMNSLKPEDTAVYYCARPYGYRGYLRYYWGQGTQVTVSS”, “high polyreactivity”.
Under “QVQLVESGGGLVQAGGSLRLSCADSGRIFRSNAMGWYRQAPGKERELVATITSSGGRTYYADSVKGRFTISRDNAKNSVYLQMNRLKPEVSAVYYCNAQQRTRGQKAQWVRDEYWGQGTQVTLSS” stands “low polyreactivity”; under “QVQLVESGGGLVQAGGSLRLSCADSGRIFRYYAMGWYRQAPGKERELVAAISGSGGSTYYADSVKGRFTISRDNSKNTVYLHMNSLKPEDTSVYYCAAAEYLYTLPYGYWGQGTQVTVSS”, “low polyreactivity”.
For the sequence “QVQLVESGGGLVQAGGSLRLSCADSGRIFSPNAMGWYRQAPGKETELVASISSAGSTNYADSVKGRFTISRDNAKNTVYLQMNSLKPEDTAFYYCAADYYGYWLSVHAWGAVTFDYWGQGTQVTVSS”, the “polyreactivity (PSR sort gate)” value is on record as “low polyreactivity”.
For “QVQLVESGGGLVQAGGSLRLSCADSGRIFVHNAMGCYRQAPGKERELVAAISWRATRTYYADSVKGRFTISRDNAKNTVYLQMNSLKPEDTAVYYWAAVTPAYSTSSSSYDYWGQGTQVTVSS”, the “polyreactivity (PSR sort gate)” value is listed as “high polyreactivity”.
To “QVQLVESGGGLVQAGGSLRLSCADSGRIFVRNAMGWYRPAPGKERELVADSTNGGSTNYADSVKGRFTISRDNAKNTVYLQRNSQKPEDTAVYYCAADTLGVYDGDYWGQGTQVTVSS” belongs “low polyreactivity”.
As to “QVQLVESGGGLVQAGGSLRLSCADSGRIFVYYAMGWYRQAPGKERELVASISYSGASTYYADSVKGRFTISRDNAKNTVYLQMNSLKPEDTAVYYCARDVWNYWDGVFQYYSYDFDYWGQGTQVTVSS”, the “polyreactivity (PSR sort gate)” value was “low polyreactivity”.
On to “QVQLVESGGGLVQAGGSLRLSCADSGRIFWANAMGWYRQAPGKERELVAAITWRGTSTYYADSVKGRFTISRDNAKNTVYLQMNSLKPEDTAVYYCAKVPYLKYGYDYWGQGTQVTVSS”, for which the “polyreactivity (PSR sort gate)” value is recorded as “high polyreactivity”.
For the sequence “QVQLVESGGGLVQAGGSLRLSCADSGRIYYSNAMGWSRQAPGKEREWVAAISRSGVRTYYADSVKGRYSISRDNAKNTVYLQKNSLKPEDTADYYCAAVIYGTTPQDEYDYWGQGTQVTVSS”, the “polyreactivity (PSR sort gate)” value is listed as “low polyreactivity”.
For the sequence “QVQLVESGGGLVQAGGSLRLSCADSGRTFEPYTMGWYRQAPGKERELVAAISWRGGSTYADSVKGRFTISRDNAKNTVYLQMNSLKPEDTAVYYCAAEPYWHLDSQYFGREYDYWGQGTQVTVSS”, the “polyreactivity (PSR sort gate)” value is reported as “low polyreactivity”.
As for “QVQLVESGGGLVQAGGSLRLSCADSGRTFFYYAMGWYRQAPGKERELVAAITTGGSTNYADSVKGRFTISRDNAKNTDYLQMKSLNPEDTEVYFCNADYDKGVRFNFTASFGEFDYWGQGTQVTVSS”, the “polyreactivity (PSR sort gate)” value is given as “low polyreactivity”.
Turning to “QVQLVESGGGLVQAGGSLRLSCADSGRTFYGNAMGWYRQAPGKERELVAAISISGGSTYYADSVKGRFTISRDNAKNTVYIQMNSLKPEDTAVYYCNAQEYYYYPYVYDSDYWGQGTQVTVSS”, the “polyreactivity (PSR sort gate)” value is “low polyreactivity”.
Regarding “QVQLVESGGGLVQAGGSLRLSCADSGRTFYINAMGWYRQAPGKERELVAAISSSGGITYYADSVKGRFTISRENAKNTVYLQMNSLKPEDTAVYYCNAPYVYSWHYDYWGQGTQVTVSS”, the “polyreactivity (PSR sort gate)” value is recorded as “low polyreactivity”.
Take “QVQLVESGGGLVQAGGSLRLSCADSGRTFYVNAMGWYRQAPGKEREFVAAISRRGGSTYYADSVKGRFTISRDNAKNTVYLQMNSLKPEDTAVYYCIAAYSSRYDYWGQGTQVTVSS”: the “polyreactivity (PSR sort gate)” value is reported as “high polyreactivity”.
Take “QVQLVESGGGLVQAGGSLRLSCADSGSIFDFNAMGWYRQAPGKERELVAAITWSGGSTYYADSVKGRFTLSRDNAKNTVYLQMNSLKPEDTAVYYCAADSLYDDFYYWGQGTQVTVSS”: the “polyreactivity (PSR sort gate)” value is reported as “low polyreactivity”.
